The text below walks through data of US20200024322A1 (Eli Lilly, published 2020).

Numbered stars: 1 amine (or outer) side, 2 acyl side, 3 side chain; on linkers, the order of the positions; unused ones are H or OH. Square brackets hold non-standard residues; d marks the D form. Side chains are listed from the residue outwards. Ends that are not written are not given here. * marks the point of attachment. C20 diacid = O=C(O)CCCCCCCCCCCCCCCCCCC(=O)*; C18 diacid = O=C(O)CCCCCCCCCCCCCCCCC(=O)*; γGlu = O=C(O)[C@H](CCC(=O)[*:2])N[*:1]; AEEA = NCCOCCOCC(=O)O; Aib = CC(C)(N)C(=O)O

The term Ki denotes a measure of affinity in units of concentration, obtained from inhibition or displacement.

For one experiment, the target named is T1, human GIP receptor (human, UniProt P48546 22-466).
T1 construct: whole, on cells; also called hGIPR; hGIP-R
T1 sequence (looked up): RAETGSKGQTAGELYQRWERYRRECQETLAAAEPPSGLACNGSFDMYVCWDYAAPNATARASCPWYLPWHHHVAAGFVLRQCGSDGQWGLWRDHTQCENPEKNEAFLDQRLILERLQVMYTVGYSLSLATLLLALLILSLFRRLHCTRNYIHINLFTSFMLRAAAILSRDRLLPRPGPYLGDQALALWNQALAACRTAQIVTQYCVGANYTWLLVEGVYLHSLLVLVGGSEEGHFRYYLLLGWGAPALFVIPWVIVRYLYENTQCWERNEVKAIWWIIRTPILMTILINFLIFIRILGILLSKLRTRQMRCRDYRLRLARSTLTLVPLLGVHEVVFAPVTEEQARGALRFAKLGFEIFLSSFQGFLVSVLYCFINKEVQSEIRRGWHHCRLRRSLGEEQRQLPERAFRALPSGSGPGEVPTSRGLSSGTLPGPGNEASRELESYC
Kind of experiment: [125I]-GIP competition SPA, hGIPR membranes.

In another experiment the target is T2, human glucagon receptor (human, UniProt P47871 26-477).
T2 construct: whole, on cells; also called hGcgR; GcgR
Kind of experiment: [125I]-Gcg competition SPA, hGcgR membranes.

The next experiment addresses T3, human GLP-1 receptor (human, UniProt P43220 24-463).
T3 construct: whole, on cells; also called hGLP-1R; hGLP1R
Kind of experiment: [125I]-GLP-1 competition SPA, hGLP-1R membranes. Summed up: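 Kᵢ values are geometric means (SEM) over replicates run on separate days, derived from IC₅₀ of four-parameter curve fits. Buffer: HEPES 25 mM pH 7.4 with CaCl₂ 2.5 mM, MgCl₂ 1 mM, bacitracin 0.1%, TWEEN-20 0.003%, EDTA-free protease inhibitors.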

T2 sequence (P47871 26-477): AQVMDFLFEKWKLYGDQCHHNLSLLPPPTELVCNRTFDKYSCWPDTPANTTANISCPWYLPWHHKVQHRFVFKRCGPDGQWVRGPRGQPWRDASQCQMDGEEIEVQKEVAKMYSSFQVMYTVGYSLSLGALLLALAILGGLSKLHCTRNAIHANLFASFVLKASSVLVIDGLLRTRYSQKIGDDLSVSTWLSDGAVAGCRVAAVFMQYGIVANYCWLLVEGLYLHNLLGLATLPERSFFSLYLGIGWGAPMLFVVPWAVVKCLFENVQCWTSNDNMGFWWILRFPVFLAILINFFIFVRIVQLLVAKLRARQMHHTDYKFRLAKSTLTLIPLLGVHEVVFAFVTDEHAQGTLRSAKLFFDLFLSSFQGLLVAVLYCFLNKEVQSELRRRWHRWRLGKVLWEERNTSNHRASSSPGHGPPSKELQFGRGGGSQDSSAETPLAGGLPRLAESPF

B1: Example 266 (peptide)
peptide: Y[Aib]EGTFTSDYSILLDKK([AEEA-AEEA-γGlu-C18 diacid])AQ[Aib]AFIEYLIEGGPSSG-NH2
modifications: N-terminus assumed
SMILES: CC[C@H](C)[C@H](NC(=O)[C@H](CC(C)C)NC(=O)[C@H](Cc1ccc(O)cc1)NC(=O)[C@H](CCC(=O)O)NC(=O)[C@@H](NC(=O)[C@H](Cc1ccccc1)NC(=O)[C@H](C)NC(=O)C(C)(C)NC(=O)[C@H](CCC(N)=O)NC(=O)[C@H](C)NC(=O)[C@H](CCCCNC(=O)COCCOCCNC(=O)COCCOCCNC(=O)CC[C@H](NC(=O)CCCCCCCCCCCCCCCCC(=O)O)C(=O)O)NC(=O)[C@H](CCCCN)NC(=O)[C@H](CC(=O)O)NC(=O)[C@H](CC(C)C)NC(=O)[C@H](CC(C)C)NC(=O)[C@@H](NC(=O)[C@H](CO)NC(=O)[C@H](Cc1ccc(O)cc1)NC(=O)[C@H](CC(=O)O)NC(=O)[C@H](CO)NC(=O)[C@@H](NC(=O)[C@H](Cc1ccccc1)NC(=O)[C@@H](NC(=O)CNC(=O)[C@H](CCC(=O)O)NC(=O)C(C)(C)NC(=O)[C@@H](N)Cc1ccc(O)cc1)[C@@H](C)O)[C@@H](C)O)[C@@H](C)CC)[C@@H](C)CC)C(=O)N[C@@H](CCC(=O)O)C(=O)NCC(=O)NCC(=O)N1CCC[C@H]1C(=O)N[C@@H](CO)C(=O)N[C@@H](CO)C(=O)NCC(N)=O
With B1, the Ki in the experiment with human GIP receptor stood at 0.0666 nM; in the experiment with human glucagon receptor it was 193 nM; with human GLP-1 receptor, 2.01 nM.

B2: Example 321 (peptide)
peptide: Y[Aib]EGTFTSDYSILLDKK([AEEA-AEEA-γGlu-C18 diacid])AQ[Aib]TFIEYLIEGGPSSG-NH2
modifications: N-terminus assumed
SMILES: CC[C@H](C)[C@H](NC(=O)[C@H](CC(C)C)NC(=O)[C@H](Cc1ccc(O)cc1)NC(=O)[C@H](CCC(=O)O)NC(=O)[C@@H](NC(=O)[C@H](Cc1ccccc1)NC(=O)[C@@H](NC(=O)C(C)(C)NC(=O)[C@H](CCC(N)=O)NC(=O)[C@H](C)NC(=O)[C@H](CCCCNC(=O)COCCOCCNC(=O)COCCOCCNC(=O)CC[C@H](NC(=O)CCCCCCCCCCCCCCCCC(=O)O)C(=O)O)NC(=O)[C@H](CCCCN)NC(=O)[C@H](CC(=O)O)NC(=O)[C@H](CC(C)C)NC(=O)[C@H](CC(C)C)NC(=O)[C@@H](NC(=O)[C@H](CO)NC(=O)[C@H](Cc1ccc(O)cc1)NC(=O)[C@H](CC(=O)O)NC(=O)[C@H](CO)NC(=O)[C@@H](NC(=O)[C@H](Cc1ccccc1)NC(=O)[C@@H](NC(=O)CNC(=O)[C@H](CCC(=O)O)NC(=O)C(C)(C)NC(=O)[C@@H](N)Cc1ccc(O)cc1)[C@@H](C)O)[C@@H](C)O)[C@@H](C)CC)[C@@H](C)O)[C@@H](C)CC)C(=O)N[C@@H](CCC(=O)O)C(=O)NCC(=O)NCC(=O)N1CCC[C@H]1C(=O)N[C@@H](CO)C(=O)N[C@@H](CO)C(=O)NCC(N)=O
In the case of B2, the Ki amounted to 0.064 nM with human GIP receptor, 770 nM with human glucagon receptor and 4.2 nM in the experiment with human GLP-1 receptor.

B3: Example 322 (peptide)
peptide: Y[Aib]EGTFTSDYSILLDKK([AEEA-AEEA-γGlu-C18 diacid])AQ[Aib]HFIEYLIEGGPSSG-NH2
modifications: N-terminus assumed
SMILES: CC[C@H](C)[C@H](NC(=O)[C@H](CC(C)C)NC(=O)[C@H](Cc1ccc(O)cc1)NC(=O)[C@H](CCC(=O)O)NC(=O)[C@@H](NC(=O)[C@H](Cc1ccccc1)NC(=O)[C@H](Cc1c[nH]cn1)NC(=O)C(C)(C)NC(=O)[C@H](CCC(N)=O)NC(=O)[C@H](C)NC(=O)[C@H](CCCCNC(=O)COCCOCCNC(=O)COCCOCCNC(=O)CC[C@H](NC(=O)CCCCCCCCCCCCCCCCC(=O)O)C(=O)O)NC(=O)[C@H](CCCCN)NC(=O)[C@H](CC(=O)O)NC(=O)[C@H](CC(C)C)NC(=O)[C@H](CC(C)C)NC(=O)[C@@H](NC(=O)[C@H](CO)NC(=O)[C@H](Cc1ccc(O)cc1)NC(=O)[C@H](CC(=O)O)NC(=O)[C@H](CO)NC(=O)[C@@H](NC(=O)[C@H](Cc1ccccc1)NC(=O)[C@@H](NC(=O)CNC(=O)[C@H](CCC(=O)O)NC(=O)C(C)(C)NC(=O)[C@@H](N)Cc1ccc(O)cc1)[C@@H](C)O)[C@@H](C)O)[C@@H](C)CC)[C@@H](C)CC)C(=O)N[C@@H](CCC(=O)O)C(=O)NCC(=O)NCC(=O)N1CCC[C@H]1C(=O)N[C@@H](CO)C(=O)N[C@@H](CO)C(=O)NCC(N)=O
For B3, the figures for the Ki with human GIP receptor, in the experiment with human glucagon receptor and in the experiment with human GLP-1 receptor were 0.175 nM, 1030 nM and 2.31 nM, respectively.

B4: Example 272 (peptide)
peptide: Y[Aib]EGTFTSDYSILLDKK([AEEA-AEEA-γGlu-C18 diacid])AQ[Aib]AFIEYLIAGGPSSG-NH2
modifications: N-terminus assumed
SMILES: CC[C@H](C)[C@H](NC(=O)[C@H](CC(C)C)NC(=O)[C@H](Cc1ccc(O)cc1)NC(=O)[C@H](CCC(=O)O)NC(=O)[C@@H](NC(=O)[C@H](Cc1ccccc1)NC(=O)[C@H](C)NC(=O)C(C)(C)NC(=O)[C@H](CCC(N)=O)NC(=O)[C@H](C)NC(=O)[C@H](CCCCNC(=O)COCCOCCNC(=O)COCCOCCNC(=O)CC[C@H](NC(=O)CCCCCCCCCCCCCCCCC(=O)O)C(=O)O)NC(=O)[C@H](CCCCN)NC(=O)[C@H](CC(=O)O)NC(=O)[C@H](CC(C)C)NC(=O)[C@H](CC(C)C)NC(=O)[C@@H](NC(=O)[C@H](CO)NC(=O)[C@H](Cc1ccc(O)cc1)NC(=O)[C@H](CC(=O)O)NC(=O)[C@H](CO)NC(=O)[C@@H](NC(=O)[C@H](Cc1ccccc1)NC(=O)[C@@H](NC(=O)CNC(=O)[C@H](CCC(=O)O)NC(=O)C(C)(C)NC(=O)[C@@H](N)Cc1ccc(O)cc1)[C@@H](C)O)[C@@H](C)O)[C@@H](C)CC)[C@@H](C)CC)C(=O)N[C@@H](C)C(=O)NCC(=O)NCC(=O)N1CCC[C@H]1C(=O)N[C@@H](CO)C(=O)N[C@@H](CO)C(=O)NCC(N)=O
With B4, the Ki was determined as 0.0353 nM with human GIP receptor, 550 nM in the experiment with human glucagon receptor and 1.22 nM with human GLP-1 receptor.

B5: Example 318 (peptide)
peptide: Y[Aib]EGTFTSDYSILLDKK([AEEA-AEEA-γGlu-C20 diacid])AQ[Aib]EFIEYLIAGGPSSG-NH2
modifications: N-terminus assumed
SMILES: CC[C@H](C)[C@H](NC(=O)[C@H](CC(C)C)NC(=O)[C@H](Cc1ccc(O)cc1)NC(=O)[C@H](CCC(=O)O)NC(=O)[C@@H](NC(=O)[C@H](Cc1ccccc1)NC(=O)[C@H](CCC(=O)O)NC(=O)C(C)(C)NC(=O)[C@H](CCC(N)=O)NC(=O)[C@H](C)NC(=O)[C@H](CCCCNC(=O)COCCOCCNC(=O)COCCOCCNC(=O)CC[C@H](NC(=O)CCCCCCCCCCCCCCCCCCC(=O)O)C(=O)O)NC(=O)[C@H](CCCCN)NC(=O)[C@H](CC(=O)O)NC(=O)[C@H](CC(C)C)NC(=O)[C@H](CC(C)C)NC(=O)[C@@H](NC(=O)[C@H](CO)NC(=O)[C@H](Cc1ccc(O)cc1)NC(=O)[C@H](CC(=O)O)NC(=O)[C@H](CO)NC(=O)[C@@H](NC(=O)[C@H](Cc1ccccc1)NC(=O)[C@@H](NC(=O)CNC(=O)[C@H](CCC(=O)O)NC(=O)C(C)(C)NC(=O)[C@@H](N)Cc1ccc(O)cc1)[C@@H](C)O)[C@@H](C)O)[C@@H](C)CC)[C@@H](C)CC)C(=O)N[C@@H](C)C(=O)NCC(=O)NCC(=O)N1CCC[C@H]1C(=O)N[C@@H](CO)C(=O)N[C@@H](CO)C(=O)NCC(N)=O
In the case of B5, the Ki in the experiment with human GIP receptor was 0.0452 nM; with human glucagon receptor, 730 nM; in the experiment with human GLP-1 receptor, 7.52 nM.

B6: Example 317 (peptide)
peptide: Y[Aib]EGTFTSDYSILLDKK([AEEA-AEEA-γGlu-C20 diacid])AQ[Aib]AFIEYLIAGGPSSG-NH2
modifications: N-terminus assumed
SMILES: CC[C@H](C)[C@H](NC(=O)[C@H](CC(C)C)NC(=O)[C@H](Cc1ccc(O)cc1)NC(=O)[C@H](CCC(=O)O)NC(=O)[C@@H](NC(=O)[C@H](Cc1ccccc1)NC(=O)[C@H](C)NC(=O)C(C)(C)NC(=O)[C@H](CCC(N)=O)NC(=O)[C@H](C)NC(=O)[C@H](CCCCNC(=O)COCCOCCNC(=O)COCCOCCNC(=O)CC[C@H](NC(=O)CCCCCCCCCCCCCCCCCCC(=O)O)C(=O)O)NC(=O)[C@H](CCCCN)NC(=O)[C@H](CC(=O)O)NC(=O)[C@H](CC(C)C)NC(=O)[C@H](CC(C)C)NC(=O)[C@@H](NC(=O)[C@H](CO)NC(=O)[C@H](Cc1ccc(O)cc1)NC(=O)[C@H](CC(=O)O)NC(=O)[C@H](CO)NC(=O)[C@@H](NC(=O)[C@H](Cc1ccccc1)NC(=O)[C@@H](NC(=O)CNC(=O)[C@H](CCC(=O)O)NC(=O)C(C)(C)NC(=O)[C@@H](N)Cc1ccc(O)cc1)[C@@H](C)O)[C@@H](C)O)[C@@H](C)CC)[C@@H](C)CC)C(=O)N[C@@H](C)C(=O)NCC(=O)NCC(=O)N1CCC[C@H]1C(=O)N[C@@H](CO)C(=O)N[C@@H](CO)C(=O)NCC(N)=O
Regarding B6, the values for the Ki with human GIP receptor, with human glucagon receptor and with human GLP-1 receptor were 0.0215 nM, 253 nM and 2.63 nM, respectively.
